Assay: soluble on expression in E. coli; label from the status in PepcDB or PDB records

Sequence | soluble on expression in E. coli
MGSDKIHHHHHHMSVKILFKNATVFPITSRPFKGDVLVSNGKVEKVGENIEDPDAEIVDLTGKFLFPGFVDAHSHIGLFEEGVGYYYSDGNEATDPVTPHVKALDGFNPQDPAIERALAGGVTSVMIVPGSANPVGGQGSVIKFRSIIVEECIVKDPAGLKMAFGENPKRVYGERKQTPSTRMGTAGVIRDYFTKVKNYMKKKELAQKEGKEFTETDLKMEVGEMVLRKKIPARMHAHRADDILTAIRIAEEFGFNLVIEHGTEAYKISKVLAEKKIPVVVGPLLTFRTKLELKDLTMETIAKLLKDGVLIALMCDHPVIPLEFATVQAATAMRYGAKEEDLLKILTVNPAKILGLEDRIGSIEPGKDADLVVWSGHPFDMKSVVERVYIDGVEVFRR | not soluble
MFSQAQFNVTMAEEDRWKQWYPNMEMIVNNKGPKLIFPELNFNITGLEEKSRYVVLLSIEKYDNIRYGYRNGKWGPSKVRHATKKEQEIKYFLHPDGTKLGKELMKETIKFDTVRITNHKKFMDKDNVFFVETMHKYVPVLTVKNITNVESANHSMRMEVAQFFPVTVYNQESIGNWKSKFHKNSTYGNRLDGGNKRKNTDSSEERTSKRSKNETEIAVSDILQVASQSENYNESTNSGRLQNEISSSIHQFPSTSYQNQYPHAYPTVNTPPIYVQQFTALFDEIHNQFDPKTKQNRVAKNVQYLSSVPQFAINQKENIHQNAPDYPVSQFPNQYPYGSYPYYYPYFQSSQQFPHLNYSMNNSIYSDSSFQSSFSAENSYFDENGNPIHYPYYSSN | not soluble
PPLYVPEQLVVHKETHQAHVMIGSRGYNAYDDKRTALYLLNNILGGPGMNSRLNVSLRERRGLVYTVESNLTSYTDTGAFCIYFGTDPEDVDTCLKLTYKELKRMRDVKMTSSQLMAAKKQLIGQIGVASDNNENNALGMAKTFLHYNKYESSESVFRRIEALTAEGLLEVANEMFAEEYLSTLIYR | not soluble
MSLSDKIRIGMTVSSTGSFVLASQSGVRGVEVWVDDVNRRGGIEIKGKKYPVELVKLDDRSDKQMVTRVYERLIVDEKVDLVFAPFGSTLTAAAGTVTERLGKYMMVWSAASDDLYKQGFKYMVSGTQMPVSAMLRAPMALAGKLGVKKAAILYSDEPFPAGLADGGRAQAAKNGIDVVLYEKYPKGQKDFSTLLQKAKAAGADALVPTSYEGDLISMTRQMKQLDINFPYTFMVYASTPQFQAIGADSNYIFSHTNYHPAINWKVNAGLTREQFGKAYDTLFPKAEFPPDFQTALAYGAGALTEEIIKKAGATDAAALKQASMDLSDKVTVMAGPYAIDETGKQLQMPFPVVQLLPGKGMVPVYPEDVAVEKAVYPAPAWNKAKGIITITTDPNSSSVDKLAAALEHHHHHH | soluble
MPGALSHIRVLDLSRVLAGPWAGQILADLGAEVIKIERPGSGDDTRAWGPPFLKDAEGNDTSEAAYYLSANRNKKSVTVDFTQPEGQRIVRELAAKADILLENFKVGGLKAYGLDYESLKQVNPKLIYCSITGFGQSGPYAKRAGYDFMIQGLGGLMSLTGRADNEEGAGPVKVGVALTDILTGLYSSTAVLAALAHRDVSGIGQHIDMALLDVQVACLANQTLNYLTTGVPPRRLGNAHPNIVPYQDFPTADGDMILTVGNDSQFRKFAELADHPEWADDPRFATNKARVANREVLIPLIRQATVLHTTAEWILSLERAGVPCGPINDLAQVFADPQVQARGLRVELPHPLAGTVPQVASPIRLSETPVEYRNPPPTLGQHTDEVLETLLGLDAAALERLRDGKVI | not soluble
MGSDKIHHHHHHVSSSLKDIQNKNQELDTKKQILSALNIRDVKDADAEYNKYVKGDMLMNVDGTLTENTDGFSISYEKEAKENNRLHVFVCEVDGETKYVVPVYGAGLWGAIWGYVALNADKDTVYGVYFSHASETPGLGAEIAGAAFQNEFSGKKVLKDGQVALAVEKNGKVTDPAYQVDGISGGTITSKGVDAMIKACLSQYDKFLTNN | not soluble
MKVCKFEKMKEEDEIRQVINYILKEHPYVVVVPTLTQLQEWLQDISISWFHEEDSASHTTINNIEEYCCTLADHLITDLPLNTDIKKYIRECIEKMHKLVEDKADLLIDKIIKAEIYRLSGELFACCLRQHGLNARTLDTGTFMQMNLERKPDIPYIQESIRQYINENRDTDIFIAPLSLCKNVYGEIDFMNEKRNDYYATVLASIFEADEIILSTELTNIYANRNCAREQHSLTYTEAEQLINSGVHLIYTDCITLAARSNIVIRLIDTHDLETERLYISSHDTESSVKAIIVQDSVTFVRFTSLNVLPGYLLMGKLLEVINKYQINVISMASSNVSVSMILTASRDTLRIIQRELHKYTEMVVDENMSVIHIIGSLHWERTQLESNIMETIRHIPISLISYGGSDHCFTISVHTADKKQLLNSLSQRFLERLSALEHHHHHH | not soluble
MSSKDKKPSKPSSSRGGIRTLSDLNRRSGPDSDSDSDGPQEYYTGGEKSGMLVQDPSKKDDVDEIFNQARQLGAVEGPLEPPPSSRSFTGTGRLLSGENVPTGNQQPEPVVHNIVFWSNGFTIDDGPLRKLDDPENASFLEVNDFHSIRKSECPKELEPADRRAPVHVNLMRKEEKCPERQKRRVSFQGVGRTLGGSNEGSGSSSPVAPDSAPIPIQTEPAPSQSLVIDETVPTTSIQLRLADGTRLVAKFNHHHTVNDIRGFIDSSRPGASLNYQLQTMGFPPKPLTDLTQTIEEAGLANSVVLQKF | soluble
MGSDKIHHHHHHMTHPALIDELQALADPGKVLTDAGSLETYGKDWTRQFTPAPLAIVFPKTTEQVQAIVRWANERLVALVPSGGRTGLSAAAVAANGEVVVSFDYMNQVLELNLTDRTAVCQPGVITRQLQALAEDNGLYYPVDFASSGSSQIGGNIGTNAGGIKVIRYGMTRNWVAGLKVVTGKGDLLELNKDLIKNATGYDLRQLFIGAEGTLGFVVEATMRLDRAPKNLTAMVLGTTDFNSIMPVLHAFHGKLDLTAFEFFSDKSFARVMARGDVPSPFDTPCPFYVLLEFEATTEDLADQALATFEHCVEQGWVLDGVMSQSEQQLRNLWKLREYISETISHFTPYKNDISVSVSKVPEFLAEIDAIVAEYYPDFEVLWYGHIGDGNLHLNILKPENLDKDEFFVKCARVNKWVFETVEKYNGSISAEHGVGMTKRDYLTYSRSPVEIEYMKALKAVFDPNGIMNPGKIFAV | not soluble
MSNLNPCMTCGACCAFFRVSFYWAEADDAGGTIPARLTEQISPFHRCMSGTNQKNPRCIALAGTPGKNACCTIYKNRSSTCREFAMSGENGVVNEACNRARAKYGLTPL | not soluble
VTNVSWLVTGSMSALSIPGLIFSLRSSHPNLNFTPYLTQSASRIVTMTSMATLSGVTPRNSDWGSEPEATPSHIQIESESDAYLIAPATLDFLARFARYDCSTPFSLALQCTKKPILVAPS | not soluble
MSLSYLLALDAGTGSIRAVIFDLNGRQLAVGQAEWKHLSVDNVPGSMEFDLTTNWQLACQCIRQALDAARLSAADIQSVACCSMREGIVLYDRNGEAIWACANVDARASREVAELKEIHDFRFESEVYEVSGQTLALSAMPRLLWLAHHRPDIYRKAATITMISDWLAAKLSGELAVDPSNAGTTGMLDLFSRDWRPALLDMAGLRADMLSPVKETGTLLGAVTEAAAQQSGLRAGTPVVMGGGDVQLGCLGLGVVRAGQTAVLGGTFWQQVVNLPQVRTDPQMNIRVNPHVIPGMAQAESISFFTGLTMRWFRDAFCAEEKLIAERLGVDAYSLLEEMASRVPAGSHGVMPIFSDAMHFKQWYHAAPSFINLSIDPEKCNKATLFRALEENAAIVSACNLAQISQFSGVTFESLVFAGGGSKGALWSQILSDVTGLPVRVPVVREATALGCAIAAGTGAGLYDDMASTGERLVSWHREFTPNPQHRELYQEMMSKWQTVYADQLGLVDSGLTTSMWQAPGLERRQRVASSPSEGHHHHHH | soluble
MKDVTIYHNPRCSKSRETLALVEQQGITPQVVLYLETPPSVDKLKELLQQLGFSDARQLMRTKEDLYKTLNLDDRGLTQDQLLQAMADNPKLIERPIVVTQGKARIGRPPEQVLEILK | not soluble
LRFQMNTRQFVSCWRSHKDELIATYFDASTDSQVGKAISDLGLNAGQTASLRTVIDGVLTDAFYSLLLGLDGAASIGPVQQPYEIRAEDGSVIRDIEPEAWAQFHDRSA | not soluble
DTHFPICIFCCGCCHRSKCGMCCKT | soluble
MAAYQVLIVGAGFSGAETAFWLAQKGVRVGLLTQSLDAVMMPFLPPKPPFPPGSLLERAYDPKDERVWAFHARAKYLLEGLRPLHLFQATATGLLLEGNRVVGVRTWEGPPARGEKVVLAVGSFLGARLFLGGVVEEAGRLSEASYPDLLEDLSRLGFRFVEREGEVPETPSTPGYRVRYLAFHPEEWEEKTFRLKRLEGLYAVGLCVREGDYARMSEEGKRLAEHLLHELG | soluble
SPRGLELLIAQTILQGFDAQYGRFLEVTSGAQQRFEQADWHAVQQAMKNRIHLYDHHVGLVVEQLRCITNGQSTDAEFLLRVKEHYTRLLPDYPRFEIAESFFNSVYCRLFDHRSLTPERLFIFSSQPERRFRTIPRPLAKDFHPDHGWESLLMRVISDLPLRLHWQNKSRDIHYIIRHLTETLGPENLSKSHLQVANELFYRNKAAWLVGKLITPSGTLPFLLPIHQTDDGELFIDTCLTTTAEASIVFGFARSYFMVYAPLPAALVEWLREILPGKTTAELYMAIGCQKHAKTESYREYLVYLQGCNEQFIEAPGIRGMVMLVFTLPGFDRVFKVIKDKFAPQKEMSAAHVRACYQLVKEHDRVGRMADTQEFENFVLEKRHISPALMELLLQEAAEKITDLGEQIVIRHLYIERRMVPLNIWLEQVEGQQLRDAIEEYGNAIRQLAAANIFPGDMLFKNFGVTRHGRVVFYDYDEICYMTEVNFRDIPPPRYPEDELASEPWYSVSPGDVFPEEFRHWLCADPRIGPLFEEMHADLFRADYWRALQNRIREGHVEDVYAYRRRQRFSVRYGEMLF | soluble
MAHHHHHHMGGVRGGRNKSHKLPVKFMAAAKQELVNSRLTLQEELLHSAFDDHSAYRMRITGLKQQNLDLSFTVSELEEQVRDLYTYIHEKRFARQVDEQGNEIAVMTPRPRGVPLALQTELGIDLRHSTANILSELSTLSINMKHQLNSALLRARQLHTLSAWLDEGNETSVSGGGVGGMLERVSEAAAIPVFPVSAWPSIPHFLRTFIAPDVPNYFWTETQAACILYNFFKRYKAIRRRARFVRDNKMLAPRVYQLFEHREVLLTRLDAGKEDVAAAEENTPFGYVVTQFAREVLANLSPQNTQPHLPLVLPGTVALRFPQTSSTPSQSKSLQSGERRG | not soluble
MSAKQVSKDEEKEALNLFLSTQTIIKEALRKLGYPGDMYELMKEPQRMLTVRIPVKMDNGSVKVFTGYRSQHNDAVGPTKGGVRFHPEVNEEKVKALSIWMTLKCGIANLPYGGGKGGIICDPRTMSFGELERLSRGYVRAISQIVGPTKDIPAPDVYTNSQIMAWMMDEYSRLREFDSPGFITGKPLVLGGSQGRETATAQGVTICIEEAVKKKGIKLQNARIIIQGFGNAGSFLAKFMHDAGAKVIGISDANGGLYNPDGLDIPYLLDKRDSFGMVTNLFTDVITNEELLEKDCDILVPAAISNQITAKNAHNIQASIVVERANGPTTIDATKILNERGVLLVPDILASAGGVTVSYFEWVQNNQGYYWSEEEVAEKLRSVMVSSFETIYQTAATHKVDMRLAAYMTGIRKSAEASRFRGWV | soluble
AFELPPLPYAHDALQPHISKETLEFHHDKHHNTYVVNLNNLVPGTEFEGKTLEEIVKTSSGGIFNNAAQVWNHTFYWNCLSPNAGGQPTGALADAINAAFGSFDKFKEEFTKTSVGTFGSGWGWLVKKADGSLALASTIGAGCPLTIGDTPLLTCDVWEHAYYIDYRNLRPKYVEAFWNLVNWAFVAEQFEGKTYKV | soluble
